From patent US7439329B2, “GEF-H1b: biomarkers, complexes assays and therapeutic uses thereof” (Sugen, Inc., priority 2002, dated 2008) come the findings set out here.

What all share (assay type): cell-based, mouse
Assay [1] deals with NIH-3T3 cells. Nature of the assay: Morphology and localization in transfected NIH-3T3 cells (EGFP fluorescence, F-actin and microtubule staining). The procedure: To analyse the effect of GEF-H1 on cell morphology in fibroblasts, EGFP (enhanced green fluorescent protein) fusion constructs of GEF-H1S and a series of mutant alleles of the PAK4 phosphorylation sites in GEF-H1S were introduced into NIH-3T3 cells. Also constructed, was a dominant negative allele by mutating the DH domain of GEF-H1 resulting in GEF-H-QR312,313MG. In a p21-binding domain (PBD) assay this dominant-negative allele inhibited accumulation of Rac-GTP but not Cdc42-GTP in NIH-3T3 cells. The actin cytoskeleton was stained with coumarin-phallicidin to contrast F-actin structures of EGFP fluorescing cells by microscopy.
Induction of F-actin structures in fibroblasts, namely the formation of filopodia, lamellipodia, and stress fibres is due to signalling by the active forms of Cdc42, Rac, and Rho, respectively. Because PAK proteins and specifically PAK4 play a role in regulating F-actin based morphological structures, experiments were devised to determine whether PAK4-induced changes in cell morphology were mediated by regulation of GEF-H1S. Also co-expressed were EGFP-GEF-H1 constructs with various HA epitope-tagged PAK4 alleles in NIH-3T3 cells. Exogenous PAK4 was detected with an anti-HA antibody (red) and the actin cytoskeleton was stained with coumarin-phallicidin (blue). Although NIH-3T3 cells have low but detectable levels of endogenous PAK4 and GEF-H1 these were not activated under the conditions of the experiment.
Residues phosphorylated by PAK4 in GEF-H1S are conserved in the MT (“microtubule”) bound form of GEF-H1, “GEF-H1M.” GEF-H1M contains a zinc finger domain in its amino terminus that allows it to bind to microtubules. The role microtubule binding in determining the ability of PAK4 to control GEF-H1M activity was investigated. Studies were performed with GEF-H1M that allowed simultaneous examination of both MT (through EGFP-GEF-H1M labelling of MTs in vivo) and actin cytoskeleton (through F-actin staining with coumarin-phallicidin). Also studied, were changes in the MT cytoskeleton by co-staining with β-tubulin antibodies.
GEF-H1S alleles were transiently expressed in NIH-3T3 cells or simultaneously expressed with PAK4 alleles. The GEF-H1S alleles were retrieved from the pcDNA vector by restriction with EcoR1 and Xho1 and inserted into pEGFP-C1 (Clontech,USA Cat#6082-1) restricted with EcoR1 and Sal1. The resulting protein was a hybrid of the brightly fluorescent protein, green fluorescent protein (GFP). The effects on cell morphology were traced by staining of F-actin with coumarin phallacidin (Molecular Probes, USA, Cat. # C-606). […] See, Callow et al., 2002. This finding was consistent with GEF-H1S being a substrate for PAK4, because activated PAK4 is also localized to the Golgi apparatus.
NIH-3T3, 293T, A549, HCT116 and H1299 cells were maintained in Dulbecco's modified Eagles medium (DMEM) 10% Fetal Bovine serum (FBS), penicillin and streptomycin from Invitrogen (Carlsbad, Calif.). For transfection, cells were seeded at 10^5 cells ml-1 for NIH-3T3 and […] for both 293T and H1299 unless otherwise stated. Transfection reagents Lipofectamine 2000 (Invitrogen) or Fugene (Roche Molecular) were used at […] of plasmid DNA. Cellular extracts for immunoblotting were prepared in lysis buffer. For immunoprecipitation experiments lysates were incubated with Protein G beads (Pharmacia) linked with appropriate antibody, glutathione sepharose beads (Pharmacia) with appropriate GST fusion protein and streptavidin beads (Pierce) linked to appropriate biotinylated peptides. For immunofluorescence, coverslips were placed in 24 well cell culture vessels and seeded at the densities above. Transfections took place after 16 h and unless otherwise stated were maintained in Optimem or DMEM with 0.2% FBS for 24 h until fixation. Microscopy was performed on a Nikon E800 microscope with 60× objective (1.5NA). […]

The subject of assay [2] is NIH-3T3 cells. Nature of the assay: Anchorage independent survival and proliferation (XTT assay). To be noted: over-expression in NIH-3T3; vessels which prevent adherence. Here is the method:
A stably expressing clone designated 192.58 containing GEF-H1S was established in the mouse fibroblast cell line, NIH-3T3. The pRSV/Rc subcloned vector expresses the GEF-H1S protein in tissue culture cells.
The GEF-H1S clones were plated in tissue culture vessels which prevent adherence. […] The ability for cells to proliferate was measured using the tetrazolium salt XTT based assay (Roche Molecular Biochemicals Cat# 1465015) which measured only metabolically active cells in culture. Measurements were made over a time course.

The subject of assay [3] is NIH-3T3 cells. Put plainly: In vitro transformation (foci) assay.
The mark [4] stands for this setting: GEF-H1 allele alone, majority of transfected cells.
Where [5] appears, read: co-expressed with PAK4 allele PAK4.
Setting [6] is: co-expressed with PAK4 allele PAK4K350,351A.
[7] abbreviates: co-expressed with PAK4 allele PAK4S474E.

B1: GEF-H1S: novel GEF-H1 splice isoform, residues 1-921, lacking N-terminal zinc finger domain (SEQ ID NO. 2) (protein)
chain: MPVTRASQPRKPSSAQQQKAALLKNNTALQSVSLRSKTTIRERPSSAIYPSDSFRQSLLGSRRGRSSLSLAKSVSTTNIAGHFNDESPLGLRRILSQSTDSLNMRNRTLSVESLIDEAEVIYSELMSDFEMDEKDFAADSWSLAVDSSFLQQHKKEVMKQQDVIYELIQTELHHVRTLKIMTRLFRTGMLEELHLEPGVVQGLFPCVDELSDIHTRFLSQLLERRRQALCPGSTRNFVIHRLGDLLISQFSGPSAEQMCKTYSEFCSRHSKALKLYKELYARDKRFQQFIRKVTRPAVLKRHGVQECILLVTQRITKYPLLISRILQHSHGIEEERQDLTTALGLVKELLSNVDEGIYQLEKGARLQEIYNRMDPRAQTPVPGKGPFGREELLRRKLIHDGCLLWKTATGRFKDVLVLLMTDVLVFLQEKDQKYIFPTLDKPSVVSLQNLIVRDIANQEKGMFLISAAPPEMYEVHTASRDDRSTWIRVIQQSVRTCPSREDFPLIETEDEAYLRRIKMELQQKDRALVELLREKVGLFAEMTHFQAEEDGGSGMALPTLPRGLFRSESLESPRGERLLQDAIREVEGLKDLLVGPGVELLLTPREPALPLEPDSGGNTSPGVTANGEARTFNGSIELCRADSDSSQRDRNGNQLRSPQEEALQRLVNLYGLLHGLQAAVAQQDTLMEARFPEGPERREKLCRANSRDGEAGRAGAAPVAPEKQATELALLQRQHALLQEELRRCRRLGEERATEAGSLEARLRESEQARALLEREAEEARRQLAALGQTEPLPAEAPWARRPVDPRRRSLPAGDALYLSFNPPQPSRGTDRLDLPVTTRSVHRNFEDRERQELGSPEERLQDSSDPDTGSEEEGSSRLSPPHSPRGETLAETWTRDFTRMQDIPEETESRDGEAVASES
For B1, the F-actin entry is listed as “occassional stress fibers” in assay [1] (setting [4]), “extreme filopodia” in assay [1] (setting [5]), “stress fibers” in assay [1] (setting [6]) and “peripheral lammellipodia” in assay [1] (setting [7]). Besides, the Microtubule result in assay [1] (setting [4]) is “radial array”; in assay [1] (setting [5]), “radial array”; in assay [1] (setting [6]), “radial array”; in assay [1] (setting [7]), “disorganized”. Besides, the cell morphology result in assay [1] (setting [4]) is given as “polarized”; in assay [1] (setting [5]) it was “contracted”; in assay [1] (setting [6]), “elongated”; in assay [1] (setting [7]) it was “polarized”. For the same molecule, the subcellular localization result in assay [1] (GFP fusion transiently expressed in NIH-3T3 cells) was “localized at the perinuclear region of the Golgi apparatus”. In assay [2], the “anchorage independent survival and proliferation” value is “anchorage independent”. For the same molecule, in assay [3] (NIH-3T3 cells), the foci induction entry is recorded as “able to induce foci”. For the same molecule, the “effect on foci in co-transformation with activated Ras” value in assay [3] (co-transformation with activated Ras, titrations) was “synergizes with activated Ras”.
